Measured values published in patent US20120070405A1.

Columns and labels:
[1] = target: CXCR1 on CXCR1-transfected HEK293 cells (UniProt P25024); assay: cell-based or functional assay
[2] = target: CXCR2 on purified human neutrophils (human) (UniProt P25025); assay: cell-based or functional assay
UniProt P25025, sequence (P25025 whole entry): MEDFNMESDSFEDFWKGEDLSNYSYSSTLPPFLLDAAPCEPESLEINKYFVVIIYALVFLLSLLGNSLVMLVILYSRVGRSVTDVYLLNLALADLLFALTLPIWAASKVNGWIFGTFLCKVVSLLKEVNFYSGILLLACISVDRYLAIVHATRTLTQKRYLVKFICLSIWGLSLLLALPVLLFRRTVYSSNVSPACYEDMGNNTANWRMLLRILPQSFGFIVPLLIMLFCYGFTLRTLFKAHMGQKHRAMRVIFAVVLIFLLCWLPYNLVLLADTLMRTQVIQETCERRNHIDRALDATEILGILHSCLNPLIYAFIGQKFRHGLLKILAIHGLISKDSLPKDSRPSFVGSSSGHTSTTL

UniProt P25024, sequence (P25024 whole entry): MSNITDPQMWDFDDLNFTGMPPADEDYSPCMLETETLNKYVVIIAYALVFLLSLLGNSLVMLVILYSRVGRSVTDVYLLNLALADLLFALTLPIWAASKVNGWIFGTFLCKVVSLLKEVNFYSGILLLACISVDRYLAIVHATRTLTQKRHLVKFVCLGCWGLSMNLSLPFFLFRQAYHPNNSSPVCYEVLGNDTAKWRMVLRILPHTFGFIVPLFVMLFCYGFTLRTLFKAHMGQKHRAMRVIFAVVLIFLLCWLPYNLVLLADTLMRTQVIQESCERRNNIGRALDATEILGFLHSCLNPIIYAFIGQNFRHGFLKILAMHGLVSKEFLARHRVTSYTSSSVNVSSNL

CXCL8-induced chemotactic responses of CXCR1-transfected HEK293 cells (modified Boyden chamber), G31P at 10 ng/ml [1]: 80 % blocked
intracellular Ca^++ flux in human neutrophils induced by CXCL1 (100 ng/ml), G31P at 10 ng/ml [2]: < 95 % reduced
intracellular Ca^++ flux in human neutrophils induced by CXCL5 (100 ng/ml), G31P at 10 ng/ml [2]: < 95 % reduced
Substance: human GS-CXCL8(3-72)K11R/G31P (from UniProt P10145 30-99) (ligand)
